Common to all, as to assay: FRET or BRET
On the technique in general: In BRET a luciferase serves as donor, and the signal depends on an acceptor being close.

Experiment [1] concerns the target RNC_(RodZ): ribosome-nascent chain complex displaying the N-terminal 180 amino acids of RodZ (UniProt P27434).
The target of experiment [2] is RNC_(RodZ) bearing the mutant TMD with two arginines introduced (UniProt P27434).
For experiment [3], the target named is RNC_(RodZ160): ribosome-nascent chain complex with a RodZ nascent chain of 160 amino acids (UniProt P27434).
The target in experiment [4] is RNC_(RodZ): ribosome-nascent chain complex displaying the N-terminal 180 amino acids of RodZ (UniProt P27434). The source holds these as a separate data set.
Experiment [5] shares this target. The source holds these as a separate data set.

Read-outs that look alike come from different tables or passages of the source.

What is called Kd is a measure of binding affinity in units of concentration. The low end stands for a tighter complex, the high end for a looser complex. With “SecA(C98S/S12C) labeled at residue 12 with BODIPY-FL (from UniProt P10408 1-901) (enzyme)”, the Kd stood at 0.019 µM in experiment [1]; 0.0259 µM in experiment [2]; 0.00094 µM in experiment [3]; 0.001 µM in experiment [4]; 0.055 µM in experiment [5]. This substance displayed a reduction in Cm donor fluorescence (FRET) in experiment [4] of 44%.

For the origin of these results see article PMC5674894.
